Test results reported in PMC5674072 (2017).

B1: 3x Flag Matrin 3 wild-type (human) [human] / Aly (AlyRef) of NSC-34 cells [mouse (endogenous in NSC-34)] (parent complex)
chain 1: MSKSFQQSSLSRDSQGHGRDLSAAGIGLLAAATQSLSMPASLGRMNQGTARLASLMNLGMSSSLNQQGAHSALSSASTSSHNLQSIFNIGSRGPLPLSSQHRGDADQASNILASFGLSARDLDELSRYPEDKITPENLPQILLQLKRRRTEEGPTLSYGRDGRSATREPPYRVPRDDWEEKRHFRRDSFDDRGPSLNPVLDYDHGSRSQESGYYDRMDYEDDRLRDGERCRDDSFFGETSHNYHKFDSEYERMGRGPGPLQERSLFEKKRGAPPSSNIEDFHGLLPKGYPHLCSICDLPVHSNKEWSQHINGASHSRRCQLLLEIYPEWNPDNDTGHTMGDPFMLQQSTNPAPGILGPPPPSFHLGGPAVGPRGNLGAGNGNLQGPRHMQKGRVETSRVVHIMDFQRGKNLRYQLLQLVEPFGVISNHLILNKINEAFIEMATTEDAQAAVDYYTTTPALVFGKPVRVHLSQKYKRIKKPEGKPDQKFDQKQELGRVIHLSNLPHSGYSDSAVLKLAEPYGKIKNYILMRMKSQAFIEMETREDAMAMVDHCLKKALWFQGRCVKVDLSEKYKKLVLRIPNRGIDLLKKDKSRKRSYSPDGKESPSDKKSKTDGSQKTESSTEGKEQEEKSGEDGEKDTKDDQTEQEPNMLLESEDELLVDEEEAAALLESGSSVGDETDLANLGDVASDGKKEPSDKAVKKDGSASAAAKKKLKKVDKIEELDQENEAALENGIKNEENTEPGAESSENADDPNKDTSENADGQSDENKDDYTIPDEYRIGPYQPNVPVGIDYVIPKTGFYCKLCSLFYTNEEVAKNTHCSSLPHYQKLKKFLNKLAEERRQKKET
chain 2: not shown

Variants of: B1
Experiment: co-immunoprecipitation (Aly IP) followed by western blot, quantified; NSC-34 stable cell lines; five replicates; WT vs 85: p = 0.6561; read off a plot
For chain 1 S85C, the ratio to parent was about 1.4.

Variants of: B1
Experiment: co-immunoprecipitation (Aly IP) followed by western blot, quantified; NSC-34 stable cell lines; five replicates; WT vs 622 p = 0.9611; read off a plot
chain 1 T622A was tested, and the ratio to parent was about 1.2.

Variants of: B1
Experiment: co-immunoprecipitation (Aly IP) followed by western blot, quantified; NSC-34 stable cell lines; five replicates; WT vs 154 p = 0.2250; read off a plot
In the case of chain 1 P154S, the ratio to parent is reported as about 1.6.

Variants of: B1
Experiment: co-immunoprecipitation (Aly IP) followed by western blot, quantified; NSC-34 stable cell lines; five replicates; WT vs 115: p = 0.9670; read off a plot
Work on chain 1 F115C yielded a ratio to parent of about 1.2.
